Key:
soybean seeds = experiment: Fatty acid composition of seeds of regenerated transgenic soybean plants; assay type: in vivo; conditions: for Eleostearic / Other / 16:0 / 18:0 / 18:1 / 18:2 / 18:3 / α-Parinaric: single soybean seed; for Eleostearic: includes cis-trans isomers of α-eleostearic acid (<1.5 wt %); for Other: primarily 20:0, 20:1, 22:0, and 22:1; for 16:0 / 18:0 / 18:1 / 18:2 / 18:3 / α-Parinaric: % of total oil weight
Description: To examine the ability of the Momordica fatty acid modifying enzyme associated with conjugated double bond synthesis to function in seeds of crop plants, transgenic soybean embryos expressing this enzyme were regenerated into plants. The fatty acid compositions of segregating seeds from these plants were examined by GC and GC-MS as described in Example 4

[1] = system: Saccharomyces cerevisiae INVSc1 cells; experiment: Expression in Saccharomyces cerevisiae, accumulation of fatty acids with conjugated double bonds; assay type: cell-based; conditions: 4 days at 16°
Method: The Impatiens balsamina clone ImpH8Fad2 was partially digested with the restriction enzymes EcoRI and XhoI. A resulting 1.5 kb DNA fragment containing the entire cDNA insert was purified by agarose gel electrophoresis. The cDNA insert was obtained from agarose gel by digestion with GELase™ (Epicentre Technologies) according to the manufacturer's instructions, ethanol precipitated, dried and resuspended in 20 μL of water. The purified cDNA was ligated into the EcoRI and XhoI sites of the Saccharomyces cerevisiae expression vector pYES2 (Invitrogen) using T4 DNA ligase (New England Biolabs). The resulting plasmid pYes2/ImpH8Fad2 was introduced into Saccharomyces cerevisiae INVSc1 (=Invitrogen)cells by lithium acetate-mediated transformation [Sherman F, Fink G R, Hicks J B, Methods in Yeast Genetics: A Laboratory Course Manual, Cold Spring Harbor Lab. Press, Plainview, N.Y. (1987)]. Transformed cells were selected by their ability to grow in the absence of uracil. Individual colonies of transformed cells were then grown for 2 days at 30° in growth media lacking uracil [0.17% (w/v) yeast nitrogen base without amino acids (Difco), 0.5% (w/v) ammonium sulfate, and 0.18% SC-URA (Bio101)] supplemented with glycerol and glucose to a final concentration of 5% (v/v) and 0.5% (w/v), respectively. Cells were then washed twice in the growth media described above that was supplemented instead with galactose to a final concentration of 2% (w/v). The washed cells were then diluted to O.D.600≈0.2 in the galactose-containing growth media that also contained Tergitol NP-40 (Sigma) at a concentration of 0.2% (w/v). Aliquots of these cells were grown without exogenous fatty acids or with the addition of either linoleic acid (18:2Δ^9cis,12cis) or α-linolenic acid (18:3Δ^9cis,12cis,15cis) at a final concentration of 2 mM. Following 4 days of growth at 16°, the S. cerevisiae cells were harvested and examined for the accumulation of fatty acids containing conjugated double bonds as described in Example 4. In cells grown in media containing linoleic acid, α-eleostearic acid was detected in amounts of up to 0.6% (w/w) of the total fatty acids.

[2] = media containing linoleic acid 2 mM
[3] = media containing α-linolenic acid 2 mM

B1: MomFad2: Momordica charantia fatty acid modifying enzyme associated with conjugated double bond formation, SEQ ID NO:4, cDNA SEQ ID NO:3 (protein, listed as Momordica charantia)
chain: MGGRGAIGVLRNGGGPKKKMGPGQGLGPGERITHARPPFSISQIKKAIPPHCFQRSLRRSFSYLLSDIALVSAFYYVADTYFHRLPHPLLHYLAWPVYWFCQGAVLTGMWGIAHDCGHHAFSDYQLVDDVVGFLIHSLVFVPYFSFKISHRRHHSNTSSVDRDEVFVPKPKAKMPWYFKYLTNPPARVFIIFITLTLGWPMYLTFNISGRYYGRFTSHFDPNSPIFSPKERVLVHISNAGLVATGYLLYRIAMAKGVGWLIRLYGVPLIVLNACVVLITALQHTHPSFPYYDSTEWDWLRGNLVTVDRDYGPIMNRVFHHITDTHVVHHLFPSMPHYNGKEATVAAKRILGEYYQFDGTPIWKAAWREFRECVYVEPDEDDGATSGSSSKGVFWYHNKL
B1 showed an Eleostearic (soybean seeds; Line 1) of 13.9 Weight %, an Other (soybean seeds; Line 1) of under 2.0 Weight % and an Eleostearic (soybean seeds; Line 2) of 13.4 Weight %. The Other (soybean seeds; Line 2) was under 2.2 Weight %, the Eleostearic (soybean seeds; Line 3) was 11.6 Weight % and the Other (soybean seeds; Line 3) was under 1.5 Weight %. The “16:0” value (soybean seeds; transgenic Line 1) was 8.8 Weight %, the “18:0” value (soybean seeds; transgenic Line 1) was 3.6 Weight % and the “18:1” value (soybean seeds; transgenic Line 1) was 44.5 Weight %. The “18:2” value (soybean seeds; transgenic Line 1) was 25.7 Weight %, the “18:3” value (soybean seeds; transgenic Line 1) was 1.0 Weight % and the α-Parinaric (soybean seeds; transgenic Line 1) was 0.5 Weight %. For the same molecule, the “16:0” value (soybean seeds; transgenic Line 2) was 8.4 Weight %, the “18:0” value (soybean seeds; transgenic Line 2) was 3.5 Weight % and the “18:1” value (soybean seeds; transgenic Line 2) was 48.9 Weight %. For the same molecule, the “18:2” value (soybean seeds; transgenic Line 2) was 22.3 Weight %, the “18:3” value (soybean seeds; transgenic Line 2) was 0.7 Weight % and the α-Parinaric (soybean seeds; transgenic Line 2) was 0.4 Weight %. For the same molecule, the “16:0” value (soybean seeds; transgenic Line 3) was 9.7 Weight %, the “18:0” value (soybean seeds; transgenic Line 3) was 3.8 Weight % and the “18:1” value (soybean seeds; transgenic Line 3) was 47.2 Weight %. The “18:2” value (soybean seeds; transgenic Line 3) was 24.7 Weight %, the “18:3” value (soybean seeds; transgenic Line 3) was 1.0 Weight % and the α-Parinaric (soybean seeds; transgenic Line 3) was 0.5 Weight %. For the same molecule, the “α-eleostearic acid of the total fatty acids” value (soybean seeds; transgenic soybean seeds) was “more than 13%”, the “α-parinaric acid of the total fatty acids” value (soybean seeds; transgenic soybean seeds) was “approximately 0.5%” and the “oleic acid (18:1) content of the total fatty acids” value (soybean seeds; transgenic soybean seeds, about 18 wt % in wild-type) was about 50 wt %. The “linolenic acid (18:3) content of the total fatty acids” value (soybean seeds; transgenic soybean seeds, nearly 9 wt % in wild-type) was “about 1 wt %”.

B2: ImpFad2: Impatiens balsamina fatty acid modifying enzyme associated with conjugated double bond formation, SEQ ID NO:2, cDNA SEQ ID NO:1 (protein, listed as Impatiens balsamina)
chain: MGEVGPTNRTKTKLDKQQESENRVPHEPPPFTLSDLKKAIPPHCFERSLVKSFYHVIHDIIILSFFYYVAANYIPMLPQNLRYVAWPIYWAIQGCVQLGILVLGHECGHHAFSDYQWVDDMVGFVLHSSQLIPYFSWKHSHRRHHSNTASIERDEVYPPAYKNDLPWFAKYLRNPVGRFLMIFGALLFGWPSYLLFNANGRLYDRFASHYDPQSPIFNNRERLQVIASDVGLVFAYFVLYKIALAKGFVWLICVYGVPYVILNGLIVLITFLQHTHPNLPRYDLSEWDWLRGALSTVDRDYGMLNKVFHNVTDTHLVHHLFTTMPHYRAKEATEVIKPILGDYYKFDDTPFLKALWKDMGKCIYVESDVPGKNKGVYWYNNDI
B2 was tested, and the “α-eleostearic acid of the total fatty acids” value [1, 2] was “up to 0.6 % (w/w)”, the α-parinaric acid detection [1, 2] was “no α-parinaric acid was detected” and the α-eleostearic acid detection [1, 3] was “no α-eleostearic acid was detected”. The “α-parinaric acid of the total fatty acids” value [1, 3] was “up to 0.9 % (w/w)”.
